Reference: patent US20100196345A1

Target: Mannose/N-acetylglucosamine (Man/GlcNAc) receptor on thioglycolate-elicited mouse peritoneal macrophages (mouse) (UniProt Q61830)
Test: cell-based or functional assay

Chain of Mannose/N-acetylglucosamine (Man/GlcNAc) receptor on thioglycolate-elicited mouse peritoneal macrophages (mouse) (Q61830 20-1456): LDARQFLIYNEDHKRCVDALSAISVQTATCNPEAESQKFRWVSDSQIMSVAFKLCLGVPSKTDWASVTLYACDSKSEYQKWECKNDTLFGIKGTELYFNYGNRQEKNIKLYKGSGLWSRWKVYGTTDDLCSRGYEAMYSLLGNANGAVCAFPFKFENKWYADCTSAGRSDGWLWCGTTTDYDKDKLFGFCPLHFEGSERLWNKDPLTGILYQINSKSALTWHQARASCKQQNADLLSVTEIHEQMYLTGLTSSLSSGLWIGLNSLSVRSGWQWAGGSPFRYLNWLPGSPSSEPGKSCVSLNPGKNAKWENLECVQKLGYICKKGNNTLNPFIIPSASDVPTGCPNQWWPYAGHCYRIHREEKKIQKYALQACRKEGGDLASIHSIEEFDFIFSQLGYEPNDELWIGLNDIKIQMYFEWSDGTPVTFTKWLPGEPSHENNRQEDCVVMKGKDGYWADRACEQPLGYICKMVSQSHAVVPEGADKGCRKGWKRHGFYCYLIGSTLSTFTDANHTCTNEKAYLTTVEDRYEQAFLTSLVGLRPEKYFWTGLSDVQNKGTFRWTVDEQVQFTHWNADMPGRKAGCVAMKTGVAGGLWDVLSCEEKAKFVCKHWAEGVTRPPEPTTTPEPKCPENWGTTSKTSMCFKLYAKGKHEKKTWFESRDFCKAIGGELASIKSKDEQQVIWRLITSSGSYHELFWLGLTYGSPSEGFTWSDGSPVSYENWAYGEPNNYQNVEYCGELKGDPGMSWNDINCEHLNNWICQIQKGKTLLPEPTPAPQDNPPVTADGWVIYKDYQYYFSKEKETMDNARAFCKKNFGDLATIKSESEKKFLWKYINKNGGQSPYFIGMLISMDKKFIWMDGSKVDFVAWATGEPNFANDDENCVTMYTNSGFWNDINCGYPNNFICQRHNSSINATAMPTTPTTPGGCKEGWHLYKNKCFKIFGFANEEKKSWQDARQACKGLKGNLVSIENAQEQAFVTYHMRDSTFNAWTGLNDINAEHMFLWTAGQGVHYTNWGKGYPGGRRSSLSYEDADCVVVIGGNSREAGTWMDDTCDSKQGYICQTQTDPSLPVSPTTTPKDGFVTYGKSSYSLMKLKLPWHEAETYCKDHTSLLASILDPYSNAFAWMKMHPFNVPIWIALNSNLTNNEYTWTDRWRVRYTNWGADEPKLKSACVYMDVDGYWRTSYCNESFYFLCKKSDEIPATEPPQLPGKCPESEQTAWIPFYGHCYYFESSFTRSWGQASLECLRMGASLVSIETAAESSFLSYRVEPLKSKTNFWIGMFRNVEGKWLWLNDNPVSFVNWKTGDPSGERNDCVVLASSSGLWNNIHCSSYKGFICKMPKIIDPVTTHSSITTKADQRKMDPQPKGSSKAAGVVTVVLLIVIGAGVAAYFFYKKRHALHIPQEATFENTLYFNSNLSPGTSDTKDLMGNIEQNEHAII

- percent of specific activity from total activity, inhibited by 4 mg/ml mannan: 65%
Substance: Cerezyme (commercial recombinant human GCD produced in mammalian CHO cells) (from UniProt P04062 40-536) (enzyme)
